Patent publication US9908919B2, “Cyclic apelin derivatives for the treatment of heart failure” (priority 2013, dated 2018)
Where a SMILES comes first, the peptide text is derived from it. Bridges are numbered along the chain shown (N, C = ends). [ ]: non-standard residue; d: D form. pGlu = O=C1CC[C@@H](C(=O)O)N1; dNle = CCCC[C@@H](N)C(=O)O

B1: Example 5: pE-R-P-R-L-C*-H-K-C*-P-Nle-P-F-OH (Disulfide C6-C9) (peptide)
peptide: ERPRLCHKCPLPF
HELM: PEPTIDE1{[Glp].R.P.R.L.C.H.K.C.P.[Nle].P.F}$PEPTIDE1,PEPTIDE1,6:R3-9:R3$$$V2.0
SMILES: CCCC[C@H](NC(=O)[C@@H]1CCCN1C(=O)[C@@H]1CSSC[C@H](NC(=O)[C@H](CC(C)C)NC(=O)[C@H](CCCNC(=N)N)NC(=O)[C@@H]2CCCN2C(=O)[C@H](CCCNC(=N)N)NC(=O)[C@@H]2CCC(=O)N2)C(=O)N[C@@H](Cc2c[nH]cn2)C(=O)N[C@@H](CCCCN)C(=O)N1)C(=O)N1CCC[C@H]1C(=O)N[C@@H](Cc1ccccc1)C(=O)O
B2: Example 2: pE-R-C*-R-L-C*-H-K-G-P-(D-Nle)-a-f-OH (Disulfide C3-C6) (peptide)
peptide: ERCRLCHKGPLAF
HELM: PEPTIDE1{[Glp].R.C.R.L.C.H.K.G.P.[CCCC[C@@H](N[*:1])C(=O)[*:2]].[dA].[dF]}$PEPTIDE1,PEPTIDE1,3:R3-6:R3$$$V2.0
SMILES: CCCC[C@@H](NC(=O)[C@@H]1CCCN1C(=O)CNC(=O)[C@H](CCCCN)NC(=O)[C@H](Cc1c[nH]cn1)NC(=O)[C@@H]1CSSC[C@H](NC(=O)[C@H](CCCNC(=N)N)NC(=O)[C@@H]2CCC(=O)N2)C(=O)N[C@@H](CCCNC(=N)N)C(=O)N[C@@H](CC(C)C)C(=O)N1)C(=O)N[C@H](C)C(=O)N[C@H](Cc1ccccc1)C(=O)O
B3: Example 1: pE-R-C*-R-L-C*-H-K-G-P-Nle-P-F-OH (Disulfide C3-C6) (peptide)
peptide: ERCRLCHKGPLPF
HELM: PEPTIDE1{[Glp].R.C.R.L.C.H.K.G.P.[Nle].P.F}$PEPTIDE1,PEPTIDE1,3:R3-6:R3$$$V2.0
SMILES: CCCC[C@H](NC(=O)[C@@H]1CCCN1C(=O)CNC(=O)[C@H](CCCCN)NC(=O)[C@H](Cc1c[nH]cn1)NC(=O)[C@@H]1CSSC[C@H](NC(=O)[C@H](CCCNC(=N)N)NC(=O)[C@@H]2CCC(=O)N2)C(=O)N[C@@H](CCCNC(=N)N)C(=O)N[C@@H](CC(C)C)C(=O)N1)C(=O)N1CCC[C@H]1C(=O)N[C@@H](Cc1ccccc1)C(=O)O
B4: Example 6: pE-R-P-R-L-c*-H-K-C*-P-f-a-f-OH (peptide)
peptide: ERPRLCHKCPFAF
HELM: PEPTIDE1{[Glp].R.P.R.L.[dC].H.K.C.P.[dF].[dA].[dF]}$PEPTIDE1,PEPTIDE1,6:R3-9:R3$$$V2.0
SMILES: CC(C)C[C@H](NC(=O)[C@H](CCCNC(=N)N)NC(=O)[C@@H]1CCCN1C(=O)[C@H](CCCNC(=N)N)NC(=O)[C@@H]1CCC(=O)N1)C(=O)N[C@@H]1CSSC[C@@H](C(=O)N2CCC[C@H]2C(=O)N[C@H](Cc2ccccc2)C(=O)N[C@H](C)C(=O)N[C@H](Cc2ccccc2)C(=O)O)NC(=O)[C@H](CCCCN)NC(=O)[C@H](Cc2c[nH]cn2)NC1=O
B5: Example 7: pE-R-P-R-L-(D-hC)*-H-K-C*-P-(D-Nle)-p-f-OH (peptide)
peptide: ERPRLCHKCPLPF
HELM: PEPTIDE1{[Glp].R.P.R.L.[O=C([C@@H](CCS[*:3])N[*:1])[*:2]].H.K.C.P.[CCCC[C@@H](N[*:1])C(=O)[*:2]].[dP].[dF]}$PEPTIDE1,PEPTIDE1,6:R3-9:R3$$$V2.0
SMILES: CCCC[C@@H](NC(=O)[C@@H]1CCCN1C(=O)[C@@H]1CSSCC[C@@H](NC(=O)[C@H](CC(C)C)NC(=O)[C@H](CCCNC(=N)N)NC(=O)[C@@H]2CCCN2C(=O)[C@H](CCCNC(=N)N)NC(=O)[C@@H]2CCC(=O)N2)C(=O)N[C@@H](Cc2c[nH]cn2)C(=O)N[C@@H](CCCCN)C(=O)N1)C(=O)N1CCC[C@@H]1C(=O)N[C@H](Cc1ccccc1)C(=O)O
B6: Example 4: pE-R-c*-R-L-C*-H-K-G-P-f-a-f-OH (Disulfide C3-C6) (peptide)
peptide: ERCRLCHKGPFAF
HELM: PEPTIDE1{[Glp].R.[dC].R.L.C.H.K.G.P.[dF].[dA].[dF]}$PEPTIDE1,PEPTIDE1,3:R3-6:R3$$$V2.0
SMILES: CC(C)C[C@@H]1NC(=O)[C@H](CCCNC(=N)N)NC(=O)[C@H](NC(=O)[C@H](CCCNC(=N)N)NC(=O)[C@@H]2CCC(=O)N2)CSSC[C@@H](C(=O)N[C@@H](Cc2c[nH]cn2)C(=O)N[C@@H](CCCCN)C(=O)NCC(=O)N2CCC[C@H]2C(=O)N[C@H](Cc2ccccc2)C(=O)N[C@H](C)C(=O)N[C@H](Cc2ccccc2)C(=O)O)NC1=O
B7: Example 8: pE-R-P-R-L-C*-H-K-G-P-Nle-P-C*-OH (peptide)
peptide: ERPRLCHKGPLPC
HELM: PEPTIDE1{[Glp].R.P.R.L.C.H.K.G.P.[Nle].P.C}$PEPTIDE1,PEPTIDE1,6:R3-13:R3$$$V2.0
SMILES: CCCC[C@@H]1NC(=O)[C@@H]2CCCN2C(=O)CNC(=O)[C@H](CCCCN)NC(=O)[C@H](Cc2c[nH]cn2)NC(=O)[C@@H](NC(=O)[C@H](CC(C)C)NC(=O)[C@H](CCCNC(=N)N)NC(=O)[C@@H]2CCCN2C(=O)[C@H](CCCNC(=N)N)NC(=O)[C@@H]2CCC(=O)N2)CSSC[C@@H](C(=O)O)NC(=O)[C@@H]2CCCN2C1=O

test system: not listed separately; assay: in vitro; conditions: rat, plasma
Protocol: The calcium flux protocol described above was followed, with the following changes. The peptides were also incubated with 5% rat plasma (Bioreclamation # [sequence]-M, Na Heparin-treated). Readings were taken at time points t0 and t24 hrs, after incubation in a 37° C. tissue culture incubator. Peptide plasma half-life in minutes was estimated by calculating the following: • 1) LN((EC50 at t0)/(EC50 at t24 hrs)), • 2) Calculate slope of value above and • 3) t112=0.693/(slope^2).

Molecule	half-life
CCCC[C@@H](NC(=O)[C@@H]1CCCN1C(=O)CNC(=O)[C@H](CCCCN)NC(=O)[C@H](Cc1c[nH]cn1)NC(=O)[C@@H]1CSSC[C@H](NC(=O)[C@H](CCCNC(=N)N)NC(=O)[C@@H]2CCC(=O)N2)C(=O)N[C@@H](CCCNC(=N)N)C(=O)N[C@@H](CC(C)C)C(=O)N1)C(=O)N[C@H](C)C(=O)N[C@H](Cc1ccccc1)C(=O)O [Example 2, pE-R-C*-R-L-C*-H-K-G-P-(D-Nle)-a-f-OH] (HELM PEPTIDE1{[Glp].R.C.R.L.C.H.K.G.P.[CCCC[C@@H](N[*:1])C(=O)[*:2]].[dA].[dF]}$PEPTIDE1,PEPTIDE1,3:R3-6:R3$$$V2.0)	225 min
CCCC[C@H](NC(=O)[C@@H]1CCCN1C(=O)CNC(=O)[C@H](CCCCN)NC(=O)[C@H](Cc1c[nH]cn1)NC(=O)[C@@H]1CSSC[C@H](NC(=O)[C@H](CCCNC(=N)N)NC(=O)[C@@H]2CCC(=O)N2)C(=O)N[C@@H](CCCNC(=N)N)C(=O)N[C@@H](CC(C)C)C(=O)N1)C(=O)N1CCC[C@H]1C(=O)N[C@@H](Cc1ccccc1)C(=O)O [Example 1, pE-R-C*-R-L-C*-H-K-G-P-Nle-P-F-OH] (HELM PEPTIDE1{[Glp].R.C.R.L.C.H.K.G.P.[Nle].P.F}$PEPTIDE1,PEPTIDE1,3:R3-6:R3$$$V2.0)	4 min
CCCC[C@H](NC(=O)[C@@H]1CCCN1C(=O)[C@@H]1CSSC[C@H](NC(=O)[C@H](CC(C)C)NC(=O)[C@H](CCCNC(=N)N)NC(=O)[C@@H]2CCCN2C(=O)[C@H](CCCNC(=N)N)NC(=O)[C@@H]2CCC(=O)N2)C(=O)N[C@@H](Cc2c[nH]cn2)C(=O)N[C@@H](CCCCN)C(=O)N1)C(=O)N1CCC[C@H]1C(=O)N[C@@H](Cc1ccccc1)C(=O)O [Example 5, pE-R-P-R-L-C*-H-K-C*-P-Nle-P-F-OH] (HELM PEPTIDE1{[Glp].R.P.R.L.C.H.K.C.P.[Nle].P.F}$PEPTIDE1,PEPTIDE1,6:R3-9:R3$$$V2.0)	16 min

molecular target: T1, human APJ receptor (hAPJ) (human, UniProt P35414 1-380); assay: cell-based or functional assay; conditions: not given
T1 sequence (looked up): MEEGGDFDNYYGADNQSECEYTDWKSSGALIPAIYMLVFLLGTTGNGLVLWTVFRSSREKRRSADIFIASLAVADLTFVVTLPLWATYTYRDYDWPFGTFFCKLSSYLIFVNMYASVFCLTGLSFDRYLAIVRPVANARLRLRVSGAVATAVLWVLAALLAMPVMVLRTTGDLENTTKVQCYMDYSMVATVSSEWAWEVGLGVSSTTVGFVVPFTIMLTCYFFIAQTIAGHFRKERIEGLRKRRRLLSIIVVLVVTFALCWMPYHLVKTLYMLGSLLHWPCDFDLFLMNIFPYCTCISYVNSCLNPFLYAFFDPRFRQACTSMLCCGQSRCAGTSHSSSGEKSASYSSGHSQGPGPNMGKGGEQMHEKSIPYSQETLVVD

Molecule	hAPJ Ca^2+ Flux EC50
B1	6.9 nM
B2	77 nM
B3	3.5 nM
B4	12.3 nM
B5	9.7 nM
B6	496 nM
B7	43.7 nM
[pGlu]RCRLCHKGP[dNle]-{NH‑phenethyl} (disulfide 3-6) [Example 3: pE-R-C*-R-L-C*-H-K-G-P-(D-Nle)-NH(Phenethyl) (Disulfide C3-C6)]	871 nM
